Test results as given in paper PMC7948458.

Columns and labels:
Assay in all cases: EMSA
OGG1 C140S C140S = OGG1 C140S C140S (UniProt O15527); conditions: 8-oxoguanine at position 16 of strand 1, opposite C; EMSA: 0.1 nM DNA, 0.5-4000 nM OGG1, 25 mM Tris-HCl pH 7.6, 175 nM NaCl (sic), 1 mM EDTA, 1 mM DTT, 300 ug/ml BSA, 12% glycerol, 15 min, 4 C
OGG1 C146S C146S = OGG1 C146S C146S (UniProt O15527); conditions: EMSA: 0.1 nM DNA, 0.5-4000 nM OGG1, 25 mM Tris-HCl pH 7.6, 175 nM NaCl (sic), 1 mM EDTA, 1 mM DTT, 300 ug/ml BSA, 12% glycerol, 15 min, 4 C
OGG1 C241S C241S = OGG1 C241S C241S (UniProt O15527); conditions: EMSA: 0.1 nM DNA, 0.5-4000 nM OGG1, 25 mM Tris-HCl pH 7.6, 175 nM NaCl (sic), 1 mM EDTA, 1 mM DTT, 300 ug/ml BSA, 12% glycerol, 15 min, 4 C
OGG1 C253S C253S = OGG1 C253S C253S (UniProt O15527); conditions: 8-oxoguanine at position 16 of strand 1, opposite C; EMSA: 0.1 nM DNA, 0.5-4000 nM OGG1, 25 mM Tris-HCl pH 7.6, 175 nM NaCl (sic), 1 mM EDTA, 1 mM DTT, 300 ug/ml BSA, 12% glycerol, 15 min, 4 C
OGG1 C255S C255S = OGG1 C255S C255S (UniProt O15527); conditions: 8-oxoguanine at position 16 of strand 1, opposite C; EMSA: 0.1 nM DNA, 0.5-4000 nM OGG1, 25 mM Tris-HCl pH 7.6, 175 nM NaCl (sic), 1 mM EDTA, 1 mM DTT, 300 ug/ml BSA, 12% glycerol, 15 min, 4 C
OGG1 C28S C28S = OGG1 C28S C28S (UniProt O15527); conditions: EMSA: 0.1 nM DNA, 0.5-4000 nM OGG1, 25 mM Tris-HCl pH 7.6, 175 nM NaCl (sic), 1 mM EDTA, 1 mM DTT, 300 ug/ml BSA, 12% glycerol, 15 min, 4 C
OGG1 WT = OGG1 WT (UniProt O15527); conditions: EMSA: 0.1 nM DNA, 0.5-4000 nM OGG1, 25 mM Tris-HCl pH 7.6, 175 nM NaCl (sic), 1 mM EDTA, 1 mM DTT, 300 ug/ml BSA, 12% glycerol, 15 min, 4 C
[1] = 8-oxoguanine at position 16 of strand 1, opposite C
[2] = tetrahydrofuran abasic analog at position 16 of strand 1 (written N), opposite base Y is C or A, not stated for this assay (written N)

Sequence of OGG1 WT (O15527 whole entry): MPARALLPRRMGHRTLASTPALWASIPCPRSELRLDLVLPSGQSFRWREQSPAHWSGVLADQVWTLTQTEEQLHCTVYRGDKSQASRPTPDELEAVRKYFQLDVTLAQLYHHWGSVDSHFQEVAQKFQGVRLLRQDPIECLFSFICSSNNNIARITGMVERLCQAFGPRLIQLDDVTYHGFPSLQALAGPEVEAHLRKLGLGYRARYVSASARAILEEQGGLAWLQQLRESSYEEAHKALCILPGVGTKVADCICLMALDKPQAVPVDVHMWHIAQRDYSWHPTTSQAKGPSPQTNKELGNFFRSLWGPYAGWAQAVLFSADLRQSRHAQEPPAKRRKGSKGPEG
Sequence of OGG1 C146S C146S (O15527 whole entry C146S): as the sequence (O15527 whole entry) above, with C146S counted along it
Sequence of OGG1 C28S C28S (O15527 whole entry C28S): as the sequence (O15527 whole entry) above, with C28S counted along it
Sequence of OGG1 C241S C241S (O15527 whole entry C241S): as the sequence (O15527 whole entry) above, with C241S counted along it
Sequence of OGG1 C253S C253S (O15527 whole entry C253S): as the sequence (O15527 whole entry) above, with C253S counted along it
Sequence of OGG1 C255S C255S (O15527 whole entry C255S): as the sequence (O15527 whole entry) above, with C255S counted along it
Sequence of OGG1 C140S C140S (O15527 whole entry C140S): as the sequence (O15527 whole entry) above, with C140S counted along it

Work on “CGTTCAACGTGCACTGACAGCACGTCCCAT (double strand) [8-oxoG:C 30-mer duplex]” yielded a binding signal (fold increase in Kd vs WT) (OGG1 C140S C140S) of 10, a binding signal (fold increase in Kd vs WT) (OGG1 C146S C146S; [1]) of 10 and a binding signal (fold increase in Kd vs WT) (OGG1 C241S C241S; [1]) of 10. It also gave a binding signal (fold increase in Kd vs WT) (OGG1 C253S C253S) of 10, a binding signal (fold increase in Kd vs WT) (OGG1 C255S C255S) of 10 and a binding signal (fold increase in Kd vs WT) (OGG1 C28S C28S; [1]) of 10. The Kd (OGG1 WT; [1]) was 1.9 nM.

“CGTTCAACGTGCACTGACAGCACGTCCCAT / ATGGGACGTGCTGTAAGTGCACGTTGAACG [8-oxoG:A 30-mer duplex]” gave a Kd (OGG1 WT; 8-oxoguanine at position 16 of strand 1, opposite A) of 201 nM.

“CGTTCAACGTGCACTNACAGCACGTCCCAT (double strand) [THF 30-mer duplex]” showed a Kd (OGG1 C146S C146S; [2]) of 9.9 nM, a Kd (OGG1 C241S C241S; [2]) of 3.5 nM and a Kd (OGG1 C28S C28S; [2]) of 2.2 nM. The Kd (OGG1 WT; [2]) was 0.6 nM.
